Consider two molecules from paper PMC10797482, “The Interaction between Collagen 1 and High Mannose Type CD133 Up‐Regulates Glutamine Transporter SLC1A5 to Promote the Tumorigenesis of Glioblastoma Stem Cells” (Advanced Science, 2023).

The target of this experiment is T1, His-COL1A1(972-1206) (human, UniProt P02452 972-1206).
T1 construct: also called COL1 (in the in vitro pull-downs); source: HEK293F, transfected (PEI), purified from the supernatants (Nickel Beads)
The experiment in a line: pull-down; GST pull-down: 10 µg purified GST fusion protein with GST-beads incubated with His-COL1A1(972-1206) protein 1 h at 4 °C; washed three times with RIPA (1% Triton X-100, 50 mM Tris pH 7.4, 150 mM NaCl, 2 mM EDTA); blot with anti-His antibody. Particulars: both partners purified.

T1 sequence (P02452 972-1206): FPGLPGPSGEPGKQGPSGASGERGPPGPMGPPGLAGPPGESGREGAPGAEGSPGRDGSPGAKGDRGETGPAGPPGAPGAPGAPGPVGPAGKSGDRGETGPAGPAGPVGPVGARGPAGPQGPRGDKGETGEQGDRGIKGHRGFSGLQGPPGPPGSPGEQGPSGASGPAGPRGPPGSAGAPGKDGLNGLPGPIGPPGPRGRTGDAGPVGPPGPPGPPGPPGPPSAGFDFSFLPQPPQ

B1: GST-CD133 N-terminal segment (amino acids 43–81) (domain or fragment, human, UniProt O43490 43-81, looked up)
chain: TQDSHKAGPIGILFELVHIFLYVVQPRDFPEDTLRKFLQ
notes: source: E. coli BL21, purified (Glutathione-Superflow Resin)
Take B1: the binding result is given as “binds”.

B2: GST-CD133(20-108) (domain or fragment, human, UniProt O43490 20-108, looked up)
chain: GGQPSSTDAPKAWNYELPATNYETQDSHKAGPIGILFELVHIFLYVVQPRDFPEDTLRKFLQKAYESKIDYDKPETVILGLKIVYYEAG
notes: source: E. coli BL21(DE3), purified (Glutathione-Superflow Resin)
For B2, the binding result is “binds”.
